Experimental data: patent publication US20260043020A1, “BINDING MEMBERS WITH ALTERED DIVERSITY SCAFFOLD DOMAINS” (priority 2016, published 2026)

Assays:
[1] = target: human Kv 1.3 (human) (UniProt P22001); test: cell-based or functional assay
[2] = target: trypsin; test: flow cytometry of HEK293 cells 15 days post transfection, biotinylated trypsin/streptavidin-APC (FL4) against anti-Fc-PE (FL2)
[3] = target: trypsin; test: flow cytometry, biotinylated trypsin with streptavidin-APC
[4] = target: trypsin; test: monoclonal phage TRF ELISA
[5] = target: trypsin; test: phage TRF ELISA; GlyAla (Pro3Gly, Arg4Ala) mutant against the clone
[6] = target: β-galactosidase; test: monoclonal phage TRF ELISA on B-galactosidase
[7] = target: T1, human ASIC1a (human) (UniProt P78348); test: cell-based or functional assay
T1 sequence (looked up): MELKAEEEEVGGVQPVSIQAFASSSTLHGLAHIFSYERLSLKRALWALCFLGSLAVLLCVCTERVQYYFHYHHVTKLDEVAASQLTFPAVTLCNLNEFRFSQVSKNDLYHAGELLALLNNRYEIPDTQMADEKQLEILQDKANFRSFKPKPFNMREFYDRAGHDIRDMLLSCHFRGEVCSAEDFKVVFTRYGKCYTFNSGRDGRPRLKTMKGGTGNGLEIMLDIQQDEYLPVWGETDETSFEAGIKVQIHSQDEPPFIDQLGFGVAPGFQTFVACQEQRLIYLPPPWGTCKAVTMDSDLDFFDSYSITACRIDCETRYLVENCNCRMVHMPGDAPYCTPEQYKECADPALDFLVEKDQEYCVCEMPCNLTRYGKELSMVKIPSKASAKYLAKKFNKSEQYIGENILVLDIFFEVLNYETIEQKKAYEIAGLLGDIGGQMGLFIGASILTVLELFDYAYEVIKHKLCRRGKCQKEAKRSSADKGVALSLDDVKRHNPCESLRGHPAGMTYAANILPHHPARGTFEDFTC

Chain of human Kv 1.3 (human) (P22001 whole entry): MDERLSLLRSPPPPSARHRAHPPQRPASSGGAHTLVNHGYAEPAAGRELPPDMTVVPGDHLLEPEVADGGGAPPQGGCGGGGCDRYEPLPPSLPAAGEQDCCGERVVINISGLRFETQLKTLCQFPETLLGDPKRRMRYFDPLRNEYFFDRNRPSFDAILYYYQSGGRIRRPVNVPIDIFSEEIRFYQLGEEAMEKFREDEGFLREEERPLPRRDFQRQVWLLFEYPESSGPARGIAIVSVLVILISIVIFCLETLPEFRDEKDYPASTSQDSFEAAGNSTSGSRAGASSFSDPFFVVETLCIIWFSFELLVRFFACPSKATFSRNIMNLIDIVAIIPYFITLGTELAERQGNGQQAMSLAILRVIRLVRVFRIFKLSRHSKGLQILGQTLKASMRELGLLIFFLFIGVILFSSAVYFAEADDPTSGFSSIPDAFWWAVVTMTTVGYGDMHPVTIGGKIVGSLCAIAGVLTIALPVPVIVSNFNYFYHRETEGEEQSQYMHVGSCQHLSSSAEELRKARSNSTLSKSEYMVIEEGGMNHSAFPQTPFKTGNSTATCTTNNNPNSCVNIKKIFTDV
Chain of β-galactosidase (P00722 2-1024): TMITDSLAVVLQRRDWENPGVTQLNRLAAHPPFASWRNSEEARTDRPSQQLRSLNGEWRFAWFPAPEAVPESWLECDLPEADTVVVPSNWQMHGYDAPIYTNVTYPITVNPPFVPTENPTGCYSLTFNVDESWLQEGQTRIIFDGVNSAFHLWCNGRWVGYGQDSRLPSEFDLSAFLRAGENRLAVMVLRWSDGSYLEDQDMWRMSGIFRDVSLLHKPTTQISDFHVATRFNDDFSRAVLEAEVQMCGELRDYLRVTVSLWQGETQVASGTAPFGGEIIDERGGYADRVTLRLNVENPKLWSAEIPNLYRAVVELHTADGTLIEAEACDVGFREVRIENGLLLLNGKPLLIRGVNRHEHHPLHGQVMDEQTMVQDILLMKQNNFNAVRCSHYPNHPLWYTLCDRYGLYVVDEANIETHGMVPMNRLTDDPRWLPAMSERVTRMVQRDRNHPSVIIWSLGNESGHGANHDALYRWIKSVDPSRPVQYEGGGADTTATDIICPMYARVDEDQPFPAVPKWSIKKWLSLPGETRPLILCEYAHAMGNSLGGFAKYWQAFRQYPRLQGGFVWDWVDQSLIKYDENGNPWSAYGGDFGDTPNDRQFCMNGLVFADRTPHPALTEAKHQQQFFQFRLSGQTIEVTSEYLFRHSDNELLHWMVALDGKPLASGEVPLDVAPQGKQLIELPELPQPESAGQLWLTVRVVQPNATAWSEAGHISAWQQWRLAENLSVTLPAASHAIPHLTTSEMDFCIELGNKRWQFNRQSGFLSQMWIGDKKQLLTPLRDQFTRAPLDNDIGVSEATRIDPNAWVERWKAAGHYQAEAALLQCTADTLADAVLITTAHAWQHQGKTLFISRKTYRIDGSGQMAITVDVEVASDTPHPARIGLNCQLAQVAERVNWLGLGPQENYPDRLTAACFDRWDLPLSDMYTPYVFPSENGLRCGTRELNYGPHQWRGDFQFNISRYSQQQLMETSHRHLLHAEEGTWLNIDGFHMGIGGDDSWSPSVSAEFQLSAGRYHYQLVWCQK

B1: KB_A07_Shk (antibody, V domains shown)
VH: EVQLVESGGGLVRPGGSLRLSCAASGFTFSSYAMSWVRQAPGKGLEWVSAISGSGGSTYYADSVKGRFTISRDNTKNSLYLQMTSLRADDTAFYYCVKDFGPGYGTGWFDYWGPGTLVTVSS
VL: NWYQQKPGKAPKLLIYAAGVRSCIDTIPKSRCTAFQCKHSMKYRLSFCRKTCGTCSRSGVPSRFSGSGSGTDFTLTISSLQPEDFATYYCQQGASPPYTFGQGTKVEIKR
- IC50, inhibition of huKv1.3 currents (QPatch, CHO cells) [1]: 40 nM

B2: KB_A07 scFv-Fc, membrane anchored on HEK293 cells (Fc fusion)
VH: B1 VH
VL: DIQMTQSPSSLSASVGDRVTITCRASQSISSYLNWYQQKPGKAPKLLIYAAGVCPRILMRCKQDSDCLAGCVCGPNGFCGSRSGVPSRFSGSGSGTDFTLTISSLQPEDFATYYCQQGASPPYTFGQGTKVEIKRT
- cells in Q1 (trypsin/streptavidin-APC positive, anti-Fc-PE negative) [2]: 3.65%
- cells in Q2 (anti-Fc-PE positive and trypsin/streptavidin-APC positive) [2]: 33.8%
- cells in Q3 (anti-Fc-PE positive, trypsin/streptavidin-APC negative) [2]: 11.1%
- % of transfected HEK293 cells dual stained for Fc and trypsin [3]: 34%

B3: KB_C10 (scFv, V domains shown)
VH: B1 VH
VL: AVNWYQQLPGKAPKLLIYAAGPCPRILMRCKQDSDCLAGCVCGPNGFCGADSGVSDRFSGSKSGTSASLAITGLQAEDEGDYYCAAWDDSLNGLVFGGGTKVTVLG
- trypsin binding signal (FU) [4]: 119000 FU
- % reduction in binding signal [5]: 100%

B4: KB A12_B-gal_F07 (scFv, V domains shown)
VH: B1 VH
VL: AVNWYQQLPGKAPKLLIYAAGRCRTTANVRRHCKQDSDCLAGCVCGPNGFCGANSGVSDRFSAAKSGTSASLAINGLRSEDEADYYCAAWDDSLNGYVFGTGTKLTVLG
- TRF signal [6]: 246000

B5: KB_B11 (scFv, V domains shown)
VH: B1 VH
VL: TQPPSVSEAPRQRVTITCGSRPCPRILMRCKQDSDCLAGCVCGPNGFCGSHNWYQQLPGSSPTTVIYEDNQRPSGVPDRFSGSIDRSSNSASLTISGLKTEDEADYYCQSYDSSNHRVVFGGGTKLTVLG
- trypsin binding signal (FU) [4]: 10300 FU
- % reduction in binding signal [5]: 100%

B6: KB_A07 MoKa-1 fusion (antibody, V domains shown)
VH: B1 VH
VL: DIQMTQSPSSLSASVGDRVTITCRASQSISSYLNWYQQKPGKAPKLLIYAAGVINVKCSLPQQCIKPCKDAGMRFGKCMNKKCRCYSSRSGVPSRFSGSGSGTDFTLTISSLQPEDFATYYCQQGASPPYTFGQGTKVEIKRT
- IC50, inhibition of huKv1.3 currents (QPatch, CHO cells) [1]: > 10000 nM

B7: KB_B10 (scFv, V domains shown)
VH: B1 VH
VL: QSVLTQLPSVSEAPRQRVTITCGRAMCPRILMRCKQDSDCLAGCVCGPNGFCGTGNWYQQHPGKAPKLIIFDVSKRPSGVPDRFSASKSGNTASLTISGLQAEDEADYYCNSYTSSNTWVFGGGTQLTVLG
- trypsin binding signal (FU) [4]: 9270 FU
- % reduction in binding signal [5]: 100%

B8: KB_A12 scFv-Fc, membrane anchored on HEK293 cells (Fc fusion)
VH: B1 VH
VL: QSVLTQPPSVSEAPRQRVTITCSGSSSNIGNNAVNWYQQLPGKAPKLLIYAAGRCPRILMRCKQDSDCLAGCVCGPNGFCGANSGVSDRFSAAKSGTSASLAINGLRSEDEADYYCAAWDDSLNGYVFGTGTKLTVLGQP
- cells in Q1 (trypsin/streptavidin-APC positive, anti-Fc-PE negative) [2]: 1.54%
- cells in Q2 (anti-Fc-PE positive and trypsin/streptavidin-APC positive) [2]: 11.2%
- cells in Q3 (anti-Fc-PE positive, trypsin/streptavidin-APC negative) [2]: 3.78%
- % of transfected HEK293 cells dual stained for Fc and trypsin [3]: 11%

B9: KB_B12 (scFv, V domains shown)
VH: B1 VH
VL: TQPPSVSEAPRQRVTITCGERPCPRILMRCKQDSDCLAGCVCGPNGFCGANNWYQQLPGSSPTTVIYEDNQRPSGVPDRFSGSIDSSSNSASLTISGLKTEDEADYYCQSYDSSNQVFGGGTKVTVLG
- trypsin binding signal (FU) [4]: 17400 FU
- % reduction in binding signal [5]: 97%

B10: KB_A07_Kaliotoxin (KTX) (antibody, V domains shown)
VH: B1 VH
VL: DIQMTQSPSSLSASVGDRVTITCRASQSISSYLNWYQQKPGKAPKLLIYAAGVGVEINVKCSGSPQCLKPCKDAGMRFGKCMNRKCHCTPKSRSGVPSRFSGSGSGTDFTLTISSLQPEDFATYYCQQGASPPYTFGQGTKVEIKR
- IC50, inhibition of huKv1.3 currents (QPatch, CHO cells) [1]: 900 nM

B11: KB_A12 IgG1 (EETI-II fusion, isotype control) (antibody, V domains shown)
VH: B1 VH
VL: AVNWYQQLPGKAPKLLIYAAGRCPRILMRCKQDSDCLAGCVCGPNGFCGANSGVSDRFSAAKSGTSASLAINGLRSEDEADYYCAAWDDSLNGYVFGTGTKLTVLG
- % ASIC1a current remaining, 3.3 µM KnotBody (QPatch, HEK293 cells) [7]: 67.4%
- IC50, inhibition of huKv1.3 currents (QPatch, CHO cells) [1]: > 10000 nM

B12: KB_A07 IgG1 (EETI-II fusion, isotype control) (antibody, V domains shown)
VH: B1 VH
VL: YLNWYQQKPGKAPKLLIYAAGVCPRILMRCKQDSDCLAGCVCGPNGFCGSRSGVPSRFSGSGSGTDFTLTISSLQPEDFATYYCQQGASPPYTFGQGTKVEIKR
- % ASIC1a current remaining, 6 µM KnotBody (QPatch, HEK293 cells) [7]: 70.9%
- IC50, inhibition of huKv1.3 currents (QPatch, CHO cells) [1]: > 10000 nM

B13: KB_A12_Shk (antibody, V domains shown)
VH: B1 VH
VL: NWYQQLPGKAPKLLIYAAGRRSCIDTIPKSRCTAFQCKHSMKYRLSFCRKTCGTCANSGVSDRFSAAKSGTSASLAINGLRSEDEADYYCAAWDDSLNGYVFGTGTKLTVLG
- IC50, inhibition of huKv1.3 currents (QPatch, CHO cells) [1]: 20 nM

B14: KB_A12 Kaliotoxin (KTX) fusion (antibody)
VH: B1 VH
VL: QSVLTQPPSVSEAPRQRVTITCSGSSSNIGNNAVNWYQQLPGKAPKLLIYAAGRGVEINVKCSGSPQCLKPCKDAGMRFGKCMNRKCHCTPKANSGVSDRFSAAKSGTSASLAINGLRSEDEADYYCAAWDDSLNGYVFGTGTKLTVLGQP
- IC50, inhibition of huKv1.3 currents (QPatch, CHO cells) [1]: > 10000 nM
